Experimental data from US20230032737A1 (published 2023).

B1: recombinant chimeric 11-8A1 (variable region of 11-8A1 + constant region of human IgG4) (antibody, V domains shown)
VH: EVQLQQSGADLVRPGASVKLSCTTSGFNIKDTYVHWVKQRPEQGLEWIGRIDPANGLTTFDPRFQAKATITADTSSNTAYLQLSSLTSEDTAVYYCTYAMEYWGQGTSVTVSS
VL: QIVLTQSPAIMSASPGERVTMTCSARSDVSYMYWYQQKPGSSPRLLIYDTSNLASGVPVRFSASGSGTSYSLTISRMEAEDAATYYCQQWSSYPPWTFGGGTKLEIK
B2: mAb 11-8A1 (hybridoma-derived murine anti-human factor D monoclonal antibody) (antibody, V domains shown)
VH: B1 VH
VL: QIVLTQSPAIMSASPGERVTMTCSARSDVSYMYWYQQKPGSSPRLLIYDTSNLASGVPVRFSASGSGTSYSLTISRMEAEDAATYYCQQWSSYPPWTFGGGTKLEIKR

Biological target: purified human factor D (from human plasma) (human, UniProt P00746 26-253)
Sequence (P00746 26-253): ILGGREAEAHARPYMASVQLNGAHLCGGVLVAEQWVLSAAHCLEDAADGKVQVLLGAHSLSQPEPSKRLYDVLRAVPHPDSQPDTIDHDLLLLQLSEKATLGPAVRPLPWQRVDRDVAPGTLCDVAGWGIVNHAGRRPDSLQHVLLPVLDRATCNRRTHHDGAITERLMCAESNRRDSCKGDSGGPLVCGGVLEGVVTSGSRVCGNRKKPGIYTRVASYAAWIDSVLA
Experiment: Biacore SPR

Binder | Kd [nM]
B1 | 0.153
B2 | 0.148
